Laboratory results published in article PMC2527209.

Target: non-translating mammalian (canine) ribosome (canine)
Assay: co-sedimentation

- stoichiometry N: 0.8
Substance: Sec61 complex (from UniProt P38377 1-476; P60467 1-96; P60058 1-68)
